The source of these data is patent US20160289698A1 (TRUSTEES OF DARTMOUTH COLLEGE, published 2016).

Assay [1] concerns the target T1, KISS ME DEADLY 3 (KMD3) (Arabidopsis, UniProt O80582 1-409).
T1 construct: Full-length protein; LexA fusion in yeast two-hybrid, YFP^N or YFP^C fusion in BiFC; also called At2g44130
T1 sequence (looked up): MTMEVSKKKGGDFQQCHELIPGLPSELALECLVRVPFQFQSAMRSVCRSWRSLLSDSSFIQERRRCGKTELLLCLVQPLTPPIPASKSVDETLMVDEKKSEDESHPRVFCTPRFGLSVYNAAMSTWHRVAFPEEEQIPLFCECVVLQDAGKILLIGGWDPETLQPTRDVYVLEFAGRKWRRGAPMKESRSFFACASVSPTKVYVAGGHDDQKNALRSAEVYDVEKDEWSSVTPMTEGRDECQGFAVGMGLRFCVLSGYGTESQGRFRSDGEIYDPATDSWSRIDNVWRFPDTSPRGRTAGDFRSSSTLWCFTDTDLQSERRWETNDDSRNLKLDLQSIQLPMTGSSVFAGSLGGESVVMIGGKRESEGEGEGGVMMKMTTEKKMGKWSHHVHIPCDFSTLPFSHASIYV
As to the kind of experiment: yeast two-hybrid (LexA-KMD bait, B42-ARR prey, X-gal). From the text:
(§1) The DUPLEX-A™ system (OriGene Technologies) was used for yeast two-hybrid analysis of interactions. KMD cDNAs were cloned into the pGilda bait vector, which produces an in-frame fusion with the LexA DNA-binding domain. Type-B ARR coding sequences were cloned into the pJG4-5 prey vector, which produces a B42 activation domain. The yeast strain EGY48 (MATa, trp1, his3, ura3, leu2::6 LexAop-LEU2) that contains the lacZ reporter plasmid pSH18-34 was transformed with the appropriate “bait” and “prey” plasmids. Interactions were tested on 5-bromo-4-chloro-3-indolyl-p-D-galactopyranoside (X-gal) medium (Ryu, et al. (2005) Cell 120(3): 395-406).
(§2) The KMD proteins also interacted with ARR20 (type-B ARR subfamily-3), but not with ARR19 (subfamily-2) and ARR21 (subfamily-3). […] All four KMD proteins interacted with both ARR1 and ARR12 in a BiFC assay. Strong fluorescence was detected in the nuclei of cells, consistent with the subcellular localization of the type-B ARRs (Hwang & Sheen J (2001) Nature 413(6854):383-389; Mason, et al. (2004) Plant Physiol. 135(2):927-937).

Assay [2] concerns the target T2, KISS ME DEADLY 4 (KMD4) (Arabidopsis, UniProt Q9M1Y1 1-418).
T2 construct: Full-length protein; LexA fusion in yeast two-hybrid, YFP^N or YFP^C fusion in BiFC; also called At3g59940
T2 sequence (looked up): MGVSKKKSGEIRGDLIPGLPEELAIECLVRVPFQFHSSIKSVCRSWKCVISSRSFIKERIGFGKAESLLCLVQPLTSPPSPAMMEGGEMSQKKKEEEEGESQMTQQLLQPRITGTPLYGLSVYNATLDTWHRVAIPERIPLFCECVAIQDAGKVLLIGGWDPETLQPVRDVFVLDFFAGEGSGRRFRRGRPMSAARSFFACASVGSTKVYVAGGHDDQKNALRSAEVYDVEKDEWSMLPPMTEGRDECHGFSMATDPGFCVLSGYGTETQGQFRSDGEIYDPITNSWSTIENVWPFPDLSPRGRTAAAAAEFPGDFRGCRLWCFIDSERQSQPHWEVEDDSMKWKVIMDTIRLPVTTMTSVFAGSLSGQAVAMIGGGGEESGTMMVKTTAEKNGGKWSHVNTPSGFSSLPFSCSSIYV
Described as above.
Excerpt: as §1, §2

B1: ARR19 (subfamily-2) (other, Arabidopsis, UniProt Q9M9B9 1-407, looked up)
chain: MLVGKISGYEDNTRSLERETSEITSLLSQFPGNTNVLVVDTNFTTLLNMKQIMKQYAYQVSIETDAEKALAFLTSCKHEINIVIWDFHMPGIDGLQALKSITSKLDLPVVIMSDDNQTESVMKATFYGACDYVVKPVKEEVMANIWQHIVRKRLIFKPDVAPPKPRMTWSEVFQPVQSHLVPTDGLDRDHFDSITINGGNGIQNMEKKQGKKPRKPRMTWTEELHQKFLEAIEIIGGIEKANPKVLVECLQEMRIEGITRSNVASHLQKHRINLEENQIPQQTQGNGWATAYGTLAPSLQGSDNVNTTIPSYLMNGPATLNQIQQNQYQNGFLTMNNNQIITNPPPPLPYLDHHHQQQHQSSPQFNYLMNNEELLQASGLSATDLELTYPSLPYDPQEYLINGYNYN
Turning to B1, the binding result in assay [1] and in assay [2] was “no binding” in each case.
